Source: patent publication US11198713B2, “Agents modulating beta-catenin functions and methods thereof” (FOG PHARMACEUTICALS, INC., priority 2017, dated 2021)
Numbered stars: 1 amine (or outer) side, 2 acyl side, 3 side chain; on linkers, the order of the positions; unused ones are H or OH. Bridge positions count the residues as written; N and C are the ends. Square brackets hold non-standard residues; d marks the D form. Primed or numbered codes have the meaning given here. MB(4) = Monomer B (PyrS), N-Alloc pyrrolidine stapling residue, (S)-3-amino-1-(allyloxycarbonyl)pyrrolidine-3-carboxylic acid, C=CCOC(=O)N1CC[C@@](N[*:1])(C(=O)[*:2])C1; R7″ = stapling residue, (R)-2-(6-heptenyl)alanine (drawn only), C=CCCCCC[C@@](C)(N[*:1])C(=O)[*:2]; R4″ = stapling residue, (R)-2-(3-butenyl)alanine (drawn only), C=CCC[C@@](C)(N[*:1])C(=O)[*:2]; MB(3) = Monomer B = PyrS, pyrrolidine stapling residue with allyl carbamate; MI = Monomer I = ReN, acyclic amine-bearing olefin stapling residue; R7 = (R)-2-(6-heptenyl)alanine, C=CCCCCC[C@@](C)(N[*:1])C(=O)[*:2]; R6 = (R)-2-(5-hexenyl)alanine, C=CCCCC[C@@](C)(N[*:1])C(=O)[*:2]; S6 = (S)-2-(5-hexenyl)alanine, C=CCCCC[C@](C)(N[*:1])C(=O)[*:2]; MB(5) = Monomer B (PyrS), N-Alloc pyrrolidine stapling residue; R4 = (R)-2-(3-butenyl)alanine, C=CCC[C@@](C)(N[*:1])C(=O)[*:2]; MF = Monomer F (SdN), acyclic alkyl-N(Alloc) stapling residue; MG = Monomer G = RdN, acyclic alkyl-N(Alloc) stapling residue; MC = Monomer C = PyrR, Alloc-pyrrolidine stapling residue; MA = Monomer A (Az), N-Alloc azetidine stapling residue; S7 = C[C@@](CCCCCC=[*:3])(N[*:1])C(=O)[*:2]; R8 = C=CCCCCCC[C@@](C)(N)C(=O)O; αMeL = CC(C)C[C@](C)(N)C(=O)O; R5 = C=CCCC[C@@](C)(N)C(=O)O; αMeV = CC(C)[C@](C)(N)C(=O)O; S5 = C=CCCC[C@](C)(N)C(=O)O; Aib = CC(C)(N)C(=O)O

T1: full-length beta-catenin (UniProt P35222 2-781, limits assumed)
T1 construct: mature; also called full-length ß-Catenin; β-catenin
T1 sequence (looked up): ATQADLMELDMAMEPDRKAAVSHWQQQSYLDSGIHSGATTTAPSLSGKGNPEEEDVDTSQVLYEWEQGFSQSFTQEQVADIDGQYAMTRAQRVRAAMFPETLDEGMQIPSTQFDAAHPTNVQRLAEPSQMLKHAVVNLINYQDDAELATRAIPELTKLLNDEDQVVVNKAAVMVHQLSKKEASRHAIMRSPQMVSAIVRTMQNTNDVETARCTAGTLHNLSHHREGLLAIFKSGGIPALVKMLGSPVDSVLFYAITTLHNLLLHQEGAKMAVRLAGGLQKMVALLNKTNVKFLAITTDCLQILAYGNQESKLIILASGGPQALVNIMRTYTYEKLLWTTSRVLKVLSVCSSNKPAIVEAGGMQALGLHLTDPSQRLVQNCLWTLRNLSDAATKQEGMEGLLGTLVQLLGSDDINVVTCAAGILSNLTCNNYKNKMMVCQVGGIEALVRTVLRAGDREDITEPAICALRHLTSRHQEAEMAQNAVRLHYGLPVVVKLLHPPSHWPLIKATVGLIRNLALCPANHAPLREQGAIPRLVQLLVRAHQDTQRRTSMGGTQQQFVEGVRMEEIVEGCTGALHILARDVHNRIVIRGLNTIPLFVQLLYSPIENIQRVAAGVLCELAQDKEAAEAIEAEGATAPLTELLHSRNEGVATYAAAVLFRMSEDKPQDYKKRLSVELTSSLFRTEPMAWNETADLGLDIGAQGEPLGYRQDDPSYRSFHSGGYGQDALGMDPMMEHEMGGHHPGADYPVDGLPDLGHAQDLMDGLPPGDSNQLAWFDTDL


Columns and labels:
full-length beta-catenin [1] = molecular target: T1, full-length beta-catenin; assay: competition FP, grade of FP EC50 (+: 500-5000 nM)
Procedure: (§1) In some embodiments, a competition fluorescence polarization assay is used to assess binding of provided compounds to beta-catenin. In an exemplary procedure, solutions of provided compounds, e.g., provided stapled peptides, were prepared in a buffer (e.g., 50 mM Tris pH 8.0, 250 mM NaCl, 2% glycerol, 0.5 mM EDTA, 0.02% w/v sodium azide) using a 3-fold serial dilution from 5 µM. Probe solution (15 nM full-length ß-Catenin, 20 nM FITC labeled peptide in buffer) was prepared and incubated for a period of time, e.g., 5 minutes, and the a volume, e.g., 40 µL per well plated in suitable plate, e.g., a black polystyrene 384-well plate (Corning). Equal volume of the serial diluted peptide was added to the plate and incubated protected from light for 15 minutes prior to read. Reads were performed on a Spectramax M5 (Molecular Devices) in duplicate. Suitable probe was FITC-PEG1-PQ-S5-ILD-S5-HVRRVWR (SEQ ID NO: 1) (hydrocarbon staple formed by two S5 via olefin metathesis) and/or FITC-bA-PQ-S5-ILD-S5-HVRRVWR (SEQ ID NO: 3) (hydrocarbon staple formed by two S5 via olefin metathesis). […] Another peptide, FPO217c (Ac-AR_8ILDAHIM$B5$RVW (SEQ ID NO: 280), with N-terminal proline removed and valine replaced with isoleucine compared to FP0025c) was prepared.

full-length beta-catenin [2] = molecular target: T1, full-length beta-catenin; assay: competition FP
Procedure: as §1

full-length beta-catenin [3] = molecular target: T1, full-length beta-catenin; assay: competition FP, grade of FP EC50 (++: 100-500 nM)
Procedure: as §1

Row | Binder | FP EC50 (full-length beta-catenin [1]) | EC50 (full-length beta-catenin [2]) | FP EC50 (full-length beta-catenin [3])
1 | Ac-PQ[S7]ILD[MA]HVRRVWR-NH2 (staple 3-7) [FP0738c] | 500 to 5000 nM | 1800 nM | –
2 | Ac-A[R7″]ILDAHI[MA]RVW-NH2 (staple 2-9; not fully specified; printed as Ac-A-R7-I-L-D-A-H-I-MA-R-V-W-NH2) [FP0516a Isomer 1] | – | – | 100 to 500 nM
3 | Ac-A[R7″]ILDAHI[MA]RVW-NH2 (staple 2-9) [FP0516c] | – | – | 100 to 500 nM
4 | Ac-PQ[S6]ILD[MA]HVRRVWR-NH2 (staple 3-7) [FP0736c] | 500 to 5000 nM | 890 nM | –
5 | Ac-A[R7]ILDAHI[MF]RVW-NH2 (staple 2-9; also: carbamate staple, olefin geometry not assigned) [FP0503c] | – | – | 100 to 500 nM
6 | Ac-PQ[R4″]ILD[MA]HVRRVWR-NH2 (staple 3-7) [FP0731c] | 500 to 5000 nM | 4700 nM | –
7 | Ac-A[Aib]ILDAHI[Aib]RVW-NH2 (SMILES CC[C@H](C)[C@H](NC(=O)[C@H](Cc1c[nH]cn1)NC(=O)[C@H](C)NC(=O)[C@H](CC(=O)O)NC(=O)[C@H](CC(C)C)NC(=O)[C@@H](NC(=O)C(C)(C)NC(=O)[C@H](C)NC(C)=O)[C@@H](C)CC)C(=O)NC(C)(C)C(=O)N[C@@H](CCCNC(=N)N)C(=O)N[C@H](C(=O)N[C@@H](Cc1c[nH]c2ccccc12)C(N)=O)C(C)C) [FP0628_aib] | – | – | 100 to 500 nM
8 | Ac-PQ[MF]ILD[S5]HVRRVWR-NH2 (staple 3-7; also: carbamate staple (-N(R')-C(O)-O-) by ring-closing olefin metathesis) [FP0779c] | 500 to 5000 nM | 1300 nM | –
9 | Ac-A[R8]ILDAHI[MB(5)]RV[dW]-NH2 (staple 2-9) [FP0630c] | – | – | 100 to 500 nM
10 | AXILDAHIXRVW (not fully specified; Ac-A-MG-I-L-D-A-H-I-MF-R-V-W-NH2; carbamate staple MG/MF) [FP0594c] | – | – | 100 to 500 nM
11 | AXILDAHIXRVW (not fully specified; Ac-A-R7-I-L-D-A-H-I-MF-R-V-W-NH2; amino staple R7/MF) [FP0503a] | – | – | 100 to 500 nM
12 | Ac-PQ[MA]ILD[R4]HVRRVWR-NH2 (staple 3-7) [FP0721c] | 500 to 5000 nM | 1300 nM | –
13 | Ac-PQ[R5]ILD[MA]HVRRVWR-NH2 (staple 3-7) [FP0733c] | 500 to 5000 nM | 920 nM | –
14 | Ac-PQ[MH]ILD[S5]HVRRVWR-NH2 (staple 3-7; also: carbamate staple (-N(R')-C(O)-O-) by ring-closing olefin metathesis) [FP0780c] | 500 to 5000 nM | 1700 nM | –
15 | Ac-PQ[MA]ILD[R7]HVRRVWR-NH2 (staple 3-7) [FP0727c] | 500 to 5000 nM | 520 nM | –
16 | Ac-PQ[R6]ILD[MA]HVRRVWR-NH2 (staple 3-7) [FP0735c] | 500 to 5000 nM | 1600 nM | –
17 | Ac-PQ[MD]ILD[S5]HVRRVWR-NH2 (staple 3-7; not fully specified; also: carbamate staple (-N(R')-C(O)-O-) by ring-closing olefin metathesis) [FP0778c] | 500 to 5000 nM | 1000 nM | –
18 | Ac-PQ[MA]ILD[S5]HVRRVWR-NH2 (staple 3-7) [FP0724c] | 500 to 5000 nM | 540 nM | –
19 | Ac-PQ[R5]ILD[MG]HVRRVWR-NH2 (staple 3-7; also: carbamate staple (-N(R')-C(O)-O-) by ring-closing olefin metathesis) [FP0776c] | 500 to 5000 nM | 570 nM | –
20 | Ac-PQ[R5]ILD[MI]HVRRVWR-NH2 (staple 3-7; also: carbamate staple (-N(R')-C(O)-O-) by ring-closing olefin metathesis) [FP0777c] | 500 to 5000 nM | 560 nM | –
21 | Ac-PQ[MC]ILD[R5]HVRRVWR-NH2 (staple 3-7) [FP0743c] | 500 to 5000 nM | 740 nM | –
22 | Ac-A[R8]ILDAHI[MB(4)]R[αMeV]W-NH2 (staple 2-9) [FP0632c] | – | – | 100 to 500 nM
23 | AXILDAHIXRVW (not fully specified; Ac-A-MA-I-L-D-A-H-I-MI-R-V-W-NH2; carbamate staple MA/MI) [FP0625c] | – | – | 100 to 500 nM
24 | Ac-PQ[MA]ILD[R5]HVRRVWR-NH2 (staple 3-7) [FP0723c] | 500 to 5000 nM | 1400 nM | –
25 | Ac-A[R8]I[αMeL]DAHI[MB(4)]RVW-NH2 (staple 2-9) [FP0644c] | – | – | 100 to 500 nM
26 | Ac-A[MI]ILDAHI[S5]RVW-NH2 (staple 2-9; also: carbamate staple, isomer 1, olefin geometry not assigned) [FP0506c Isomer 1] | – | – | 100 to 500 nM
27 | Ac-PQ[MB(3)]ILD[S6]HVRRVWR-NH2 (staple 3-7) [FP0752c] | 500 to 5000 nM | 2600 nM | –
28 | Ac-PQ[MA]ILD[S7]HVRRVWR-NH2 (staple 3-7) [FP0728c] | 500 to 5000 nM | 2100 nM | –
29 | Ac-PQ[MB(3)]ILD[S5]HVRRVWR-NH2 (staple 3-7) [FP0751c] | 500 to 5000 nM | 2000 nM | –
30 | Ac-PQ[R5]ILD[MB(3)]HVRRVWR-NH2 (staple 3-7) [FP0758c] | 500 to 5000 nM | 2700 nM | –
